Results as given in PMC3605359, “Expression, purification and biochemical characterization of Schizosaccharomyces pombe Mcm4, 6 and 7” (BMC Biochemistry, 2013).

How the values were obtained:
[1] = biological target: the molecule itself; assay: SEC; 4C1 at the higher protein concentration (12-mer peak, ~500 kDa); 250 mM NaCl, 50 mM Tris pH8, 1 mM DTT
[2] = biological target: the molecule itself; assay: SEC; 4C1 at much lower protein concentration: a center fraction of the 12-mer peak injected again on the same column (hexamer peak, ~250 kDa)

B1: 4C1, core fragment of S. pombe Mcm4 (domain or fragment)
chain: ISDEEVEKIQQVSKRDDIYDILSRSLAPSIYEMDDVKKGLLLQLFGGTNKSFHKGASPRYRGDINILMCGDPSTSKSQILKYVHKIAPRGVYTSGKGSSAVGLTAYITRDQDTKQLVLESGALVLSDGGICCIDEFDKMSDATRSILHEVMEQQTVTVAKAGIITTLNARTSILASANPIGSKYNPDLPVTKNIDLPPTLLSRFDLVYLILDRVDETLDRKLANHIVSMYMEDTPEHATDMEVFSVEFLTSYITYARNNINPVISEEAAKELVNAYVGMRKLGEDVRASEKRITATTRQLESMIRLSEAHAKMHLRNVVEVGDVLEAARLIKTAIKDYATD
stoichiometry N [1]: 12
stoichiometry N [2]: 6
